How the values were obtained:
Test in all cases: cell-based or functional assay
[1] = target: HIV-1 Env of isolate MGRM-AG-006 (subtype AG) (HIV-1)
[2] = target: HIV-1 envelope glycoprotein (Env) of isolate MGRM-C-012 (HIV-1)
[3] = target: HIV-1 Env of isolate JRFL (subtype B) (HIV-1)
[4] = target: HIV-1 envelope glycoprotein (Env) of isolate MGRM-C-009 (HIV-1)
[5] = target: HIV-1 Env of isolate 92WR021 (HIV-1)
[6] = target: HIV-1 Env of isolate MGRM-AE-006 (subtype AE) (HIV-1)
[7] = target: HIV-1 Env of isolate 93WR029 (HIV-1)
[8] = target: HIV-1 Env of isolate APV-6 (HIV-1)
[9] = target: HIV-1 Env of isolate MGRM-C-002 (subtype C) (HIV-1)
[10] = target: HIV-1 Env of isolate MG RM-D-019 (HIV-1)
[11] = target: HIV-1 Env of isolate MG RM-D-014 (HIV-1)
[12] = target: HIV-1 envelope glycoprotein (Env) of isolate MGRM-C-020 (HIV-1)
[13] = target: HIV-1 Env of isolate 94KE105 (subtype AC) (HIV-1)
[14] = target: HIV-1 Env of isolate MG RM-D-013 (HIV-1)
[15] = target: HIV-1 envelope glycoprotein (Env) of isolate MGRM-C-027 (HIV-1)
[16] = target: aMLV envelope (negative control pseudovirus)
[17] = target: HIV-1 Env of isolate MGRM-G-028 (HIV-1)
[18] = target: HIV-1 Env of isolate MGRM-D-001 (clade D pseudovirus) (HIV-1)
[19] = target: HIV-1 Env of isolate MGRM-D-008 (clade D pseudovirus) (HIV-1)
[20] = target: HIV-1 Env of pseudovirus MGRM-G-019 (HIV-1, clade G isolate MGRM-G-019)
[21] = target: HIV-1 Env of isolate MGRM-D-002 (clade D pseudovirus) (HIV-1)
[22] = target: HIV-1 envelope glycoprotein (Env) of isolate MGRM-A-003, clade A (HIV-1)
[23] = target: HIV-1 92RW020 envelope glycoprotein (Env) on pseudovirus (HIV-1)
[24] = target: HIV-1 Env of pseudovirus MGRM-G-006 (clade G) (HIV-1)
[25] = target: HIV-1 envelope glycoprotein (Env) of isolate 94KE105, listed under clade A (HIV-1)
[26] = target: HIV-1 Env of isolate MGRM-D-005 (clade D pseudovirus) (HIV-1)
[27] = target: HIV-1 94UG103 envelope glycoprotein (Env) on pseudovirus (HIV-1)
[28] = target: HIV-1 Env of pseudovirus MGRM-G-028 (HIV-1, clade G isolate MGRM-G-028)
[29] = target: HIV-1 Env of pseudovirus MGRM-F1-014 (HIV-1)
[30] = target: HIV-1 Env of pseudovirus MGRM-G-013 (HIV-1, clade G isolate MGRM-G-013)
[31] = target: HIV-1 Env of isolate 92RW024 (clade A pseudovirus) (HIV-1)
[32] = target: HIV-1 Env of isolate 93MW959 (clade C) (HIV-1 isolate 93MW959)
[33] = target: HIV-1 92TH021 envelope glycoprotein (Env) on pseudovirus (HIV-1)
[34] = target: HIV-1 Env of pseudovirus MGRM-AE-003 (clade CRF01_AE) (HIV-1)
[35] = target: HIV-1 Env of isolate MGRM-C-028 (HIV-1)
[36] = target: HIV-1 Env of isolate MGRM-C-026 (HIV-1)
[37] = target: HIV-1 Env of isolate MGRM-F1-021 (HIV-1)

Chain of 5345_I01 (PGT-137) (antibody) (VH): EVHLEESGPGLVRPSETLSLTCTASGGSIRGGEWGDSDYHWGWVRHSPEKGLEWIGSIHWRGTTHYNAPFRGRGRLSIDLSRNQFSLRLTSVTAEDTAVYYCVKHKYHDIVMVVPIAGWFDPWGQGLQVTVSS
Chain of 5345_I01 (PGT-137) (antibody) (VL): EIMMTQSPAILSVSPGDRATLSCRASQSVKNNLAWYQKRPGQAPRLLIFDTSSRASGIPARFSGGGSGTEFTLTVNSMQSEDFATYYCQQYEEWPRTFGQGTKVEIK
Chain of 4980_N08 (PGT-143) (antibody) (VH): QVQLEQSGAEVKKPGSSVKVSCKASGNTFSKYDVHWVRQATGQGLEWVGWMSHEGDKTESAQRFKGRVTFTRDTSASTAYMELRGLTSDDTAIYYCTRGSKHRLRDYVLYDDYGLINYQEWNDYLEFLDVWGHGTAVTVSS
Chain of 4980_N08 (PGT-143) (antibody) (VL): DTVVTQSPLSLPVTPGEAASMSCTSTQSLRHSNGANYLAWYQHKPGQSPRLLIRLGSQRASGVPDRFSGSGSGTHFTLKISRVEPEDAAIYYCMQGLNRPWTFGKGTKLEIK
Chain of 4995_E20 (PGT-142) (antibody) (VH): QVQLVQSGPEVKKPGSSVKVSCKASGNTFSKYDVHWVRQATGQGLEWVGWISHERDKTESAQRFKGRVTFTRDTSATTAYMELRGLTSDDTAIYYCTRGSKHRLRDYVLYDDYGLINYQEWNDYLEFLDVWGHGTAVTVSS
Chain of 4995_E20 (PGT-142) (antibody) (VL): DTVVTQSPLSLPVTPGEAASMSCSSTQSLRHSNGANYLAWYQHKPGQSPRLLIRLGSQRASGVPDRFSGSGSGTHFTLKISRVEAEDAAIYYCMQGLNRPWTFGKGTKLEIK
Chain of 1443_C16 (PG16) (TCN-116) (antibody) (VH): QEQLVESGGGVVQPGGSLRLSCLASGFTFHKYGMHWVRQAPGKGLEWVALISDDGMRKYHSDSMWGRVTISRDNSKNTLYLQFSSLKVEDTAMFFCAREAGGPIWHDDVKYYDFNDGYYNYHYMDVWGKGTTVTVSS
Chain of 1443_C16 (PG16) (TCN-116) (antibody) (VL): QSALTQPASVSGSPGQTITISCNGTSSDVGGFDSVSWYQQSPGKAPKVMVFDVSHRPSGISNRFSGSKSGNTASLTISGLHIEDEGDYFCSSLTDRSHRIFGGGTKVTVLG
Chain of 4970_K22 (PGT-144) (antibody) (VH): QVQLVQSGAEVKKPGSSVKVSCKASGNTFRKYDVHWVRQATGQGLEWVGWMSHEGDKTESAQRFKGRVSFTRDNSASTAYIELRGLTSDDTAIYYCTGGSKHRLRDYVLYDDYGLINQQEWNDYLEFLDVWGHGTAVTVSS
Chain of 4970_K22 (PGT-144) (antibody) (VL): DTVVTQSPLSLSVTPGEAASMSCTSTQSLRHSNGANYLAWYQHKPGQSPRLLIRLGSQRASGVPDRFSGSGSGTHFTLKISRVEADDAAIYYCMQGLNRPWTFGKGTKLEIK
Chain of 4993_K13 (PGT-141) (antibody) (VH): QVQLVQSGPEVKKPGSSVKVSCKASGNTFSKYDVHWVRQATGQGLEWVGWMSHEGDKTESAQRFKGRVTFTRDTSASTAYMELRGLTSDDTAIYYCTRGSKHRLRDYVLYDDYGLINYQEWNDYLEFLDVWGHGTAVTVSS

Row | Substance | IC50 (µg/mL), pseudovirus neutralization [6] [µg/mL] | IC50 (µg/mL), pseudovirus neutralization [16] [µg/mL] | IC50 (µg/mL), pseudovirus neutralization [17] [µg/mL] | IC50 (µg/ml), pseudovirus neutralization [18] [µg/mL] | IC50 (µg/ml), pseudovirus neutralization [19] [µg/mL] | IC50 (µg/ml), pseudovirus neutralization [20] [µg/mL] | IC50 (µg/ml), pseudovirus neutralization [21] [µg/mL] | IC50 (µg/ml), pseudovirus neutralization [22] [µg/mL] | IC50, pseudovirus neutralization [23] [µg/mL] | IC50 [24] [µg/mL] | IC50 (µg/ml), pseudovirus neutralization [25] [µg/mL] | IC50 (µg/ml), pseudovirus neutralization [26] [µg/mL] | IC50, pseudovirus neutralization [27] [µg/mL] | IC50 (µg/ml), pseudovirus neutralization [28] [µg/mL] | IC50 (µg/ml), pseudovirus neutralization [29] [µg/mL] | IC50 (µg/ml), pseudovirus neutralization [30] [µg/mL] | IC50 (µg/ml), pseudovirus neutralization [31] [µg/mL] | IC50 (µg/ml), pseudovirus neutralization [32] [µg/mL] | IC50, pseudovirus neutralization [33] [µg/mL] | IC50 [34] [µg/mL] | also measured
1 | 5136_H01 (PGT-131) (antibody) | 0.026 | – | – | – | – | – | – | – | – | – | – | – | – | – | – | – | – | – | – | – | IC50 (µg/mL), pseudovirus neutralization [1]: 0.019 µg/mL; IC50 (µg/mL), pseudovirus neutralization [2]: > 50 µg/mL; IC50 neutralization [3]: 0.454 µg/mL; IC50 (µg/mL), pseudovirus neutralization [4]: > 50 µg/mL; IC50 [5]: 0.012 µg/mL; IC50 [7]: > 50 µg/mL; neutralization IC50 [8]: > 50 µg/mL; IC50 neutralization [9]: > 50 µg/mL; IC50 (µg/mL), pseudovirus neutralization [10]: > 50 µg/mL; IC50 (µg/mL), pseudovirus neutralization [11]: 0.516 µg/mL; IC50 (µg/mL), pseudovirus neutralization [12]: > 50 µg/mL; IC50 (µg/mL), pseudovirus neutralization [13]: 0.013 µg/mL; IC50 (µg/mL), pseudovirus neutralization [14]: 4.14 µg/mL; IC50 (µg/mL), pseudovirus neutralization [15]: 0.065 µg/mL
2 | 4980_N08 (PGT-143) (antibody) | > 50 | > 50 | 43 | – | – | – | – | – | – | – | – | – | – | – | – | – | – | – | – | – | IC50 (neutralizing activity, pseudovirus) [16]: > 10 µg/mL
3 | 2G12 (antibody) | – | – | – | > 50 | > 50 | 31 | > 50 | > 50 | 0.56 | > 50 | 7.22 | 25.7 | > 50 | 28.2 | > 50 | > 50 | > 50 | > 50 | > 50 | > 50 | –
4 | 4993_K13 (PGT-141) (antibody) | > 50 | > 50 | 24.9 | – | – | – | – | – | – | – | – | – | – | – | – | – | – | – | – | – | IC50 (neutralizing activity, pseudovirus) [16]: > 10 µg/mL
5 | 1496_C09 (PG9) (TCN-109) (antibody) | – | – | 0.891 | – | 6.86 | 0.67 | 0.027 | 0.65 | 0.0637 | 0.51 | 29.6 | 0.59 | 0.173 | – | 0.01 | – | 0.18 | 0.04 | 0.111 | – | –
6 | 4970_K22 (PGT-144) (antibody) | > 50 | > 50 | > 50 | – | – | – | – | – | – | – | – | – | – | – | – | – | – | – | – | – | IC50 (neutralizing activity, pseudovirus) [16]: > 10 µg/mL
7 | 5345_I01 (PGT-137) (antibody) | > 50 | – | – | – | – | – | – | – | – | – | – | – | – | – | – | – | – | – | – | – | IC50 (µg/mL), pseudovirus neutralization [1]: 28.3 µg/mL; IC50 (µg/mL), pseudovirus neutralization [2]: 0.102 µg/mL; IC50 neutralization [3]: > 50 µg/mL; IC50 (µg/mL), pseudovirus neutralization [4]: > 50 µg/mL; IC50 [5]: 3.52 µg/mL; IC50 [7]: > 50 µg/mL; neutralization IC50 [8]: > 50 µg/mL; IC50 neutralization [9]: 8.03 µg/mL; IC50 (µg/mL), pseudovirus neutralization [10]: > 50 µg/mL; IC50 (µg/mL), pseudovirus neutralization [11]: > 50 µg/mL; IC50 (µg/mL), pseudovirus neutralization [12]: > 50 µg/mL; IC50 (µg/mL), pseudovirus neutralization [13]: 18.5 µg/mL; IC50 (µg/mL), pseudovirus neutralization [14]: > 50 µg/mL; IC50 (µg/mL), pseudovirus neutralization [15]: > 50 µg/mL
8 | VRC01 (antibody) | 4.65 | > 50 | 0.164 | – | – | – | – | – | – | – | – | – | – | – | – | – | – | – | – | – | IC50 (µg/mL), pseudovirus neutralization [35]: 0.319 µg/mL; IC50 (µg/mL), pseudovirus neutralization [36]: 0.707 µg/mL; IC50 [10]: 0.119 µg/mL; IC50 [11]: 0.332 µg/mL; IC50 [37]: 0.039 µg/mL; IC50 [14]: 0.087 µg/mL
9 | 1443_C16 (PG16) (TCN-116) (antibody) | – | – | – | > 50 | > 50 | 1.21 | 0.01 | 2.65 | 0.004 | 2.42 | 6.13 | 19.7 | 0.008 | 3.09 | 0.01 | > 50 | 0.08 | 0.007 | 0.127 | 0.03 | –
10 | 2F5 (antibody) | – | – | – | 0.63 | > 50 | > 50 | 24.6 | 7.37 | 3.37 | 1.33 | > 50 | > 50 | 3.79 | 2.24 | 15.1 | 0.59 | 8.22 | > 50 | 1.51 | 0.24 | –
11 | 1495_C14 (PGC14) (antibody) | – | – | – | > 50 | > 50 | > 50 | 29 | > 50 | 28.6 | > 50 | > 50 | > 50 | > 50 | > 50 | > 50 | > 50 | > 50 | > 50 | > 50 | > 50 | –
12 | 4995_E20 (PGT-142) (antibody) | > 50 | > 50 | 30.3 | – | – | – | – | – | – | – | – | – | – | – | – | – | – | – | – | – | IC50 (neutralizing activity, pseudovirus) [16]: > 10 µg/mL
13 | 4E10 (antibody) | – | – | – | 1.84 | 42.9 | 6.53 | 9.44 | 5.94 | 3.38 | 1.23 | 7.63 | 35.2 | 9.7 | 6.32 | 7.36 | 1.15 | 8.88 | 4.55 | 1.9 | 0.34 | –
14 | b12 (antibody) | – | – | – | > 50 | > 50 | 3.77 | > 50 | > 50 | > 50 | > 50 | > 50 | > 50 | 3.54 | > 50 | > 50 | > 50 | > 50 | > 50 | 9.99 | > 50 | –
15 | PGV04 (antibody) | – | > 50 | 0.352 | – | – | – | – | – | – | – | – | – | – | – | – | – | – | – | – | – | –
